In patent US20230002488A1 (SYSTIMMUNE, published 2023):

T1: human CD19 (human, UniProt P15391 20-291)
T1 sequence (looked up): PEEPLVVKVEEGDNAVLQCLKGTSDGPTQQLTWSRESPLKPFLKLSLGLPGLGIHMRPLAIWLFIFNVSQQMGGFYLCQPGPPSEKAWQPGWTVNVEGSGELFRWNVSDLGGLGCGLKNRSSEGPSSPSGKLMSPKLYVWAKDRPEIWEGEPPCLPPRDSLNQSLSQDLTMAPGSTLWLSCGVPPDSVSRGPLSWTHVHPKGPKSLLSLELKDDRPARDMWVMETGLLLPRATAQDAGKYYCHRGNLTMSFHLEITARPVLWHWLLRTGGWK


Tests used:
human EGFR = molecular target: T2, human EGFR (human, UniProt P00533 25-645); experiment: BLI (Octet), GNC on AHC sensor, His-tagged human EGFR as analyte, global 1:1 fit
T2 construct: also called huEGFR; His-tagged human EGFR

HER3 on BxPC3 cells = HER3 on BxPC3 cells (human, UniProt P21860 20-1342); experiment: cell-based or functional assay
human CD19 [1] = molecular target: T1, human CD19; experiment: BLI (Octet), GNC on AHC sensor, 100 nM antigen as analyte, 1:1 fit
human 4-1BB = molecular target: T3, human 4-1BB (human, UniProt Q07011 24-186); experiment: as above
T3 construct: Bought antigen; construct not described

human PD-L1 = molecular target: T4, human PD-L1 (human, UniProt Q9NZQ7 19-238); experiment: as above
T4 construct: Bought antigen; construct not described

human CD19 [2] = molecular target: T1, human CD19; experiment: BLI (Octet), GNC on AHC sensor; strong binding, dissociation too slow to quantify KD
human ROR1 = human ROR1 (human, UniProt Q01973 30-403, limits assumed); experiment: BLI (Octet), GNC on AHC sensor, 100 nM antigen as analyte, 1:1 fit
SI-49P7 = molecular target: T5, SI-49P7; experiment: BLI (Octet), biotinylated MICA on SA tips, GNC protein 0-100 nM as analyte
T5 construct: Antibody-like penta-GNC protein; NKG2D at D2, 4-1BBL trimer at D4; D1 CD3, D3 PD-L1, D6 CD19; also called αCD3×NKG2D×αPD-L1×41BBL trimer×αCD19

EGFRvIII = EGFRvIII (human, UniProt P00533 25-645, limits assumed); experiment: BLI (Octet), GNC on AHC sensor, 100 nM antigen as analyte, 1:1 fit

T5 sequence (heavy, as listed by the source): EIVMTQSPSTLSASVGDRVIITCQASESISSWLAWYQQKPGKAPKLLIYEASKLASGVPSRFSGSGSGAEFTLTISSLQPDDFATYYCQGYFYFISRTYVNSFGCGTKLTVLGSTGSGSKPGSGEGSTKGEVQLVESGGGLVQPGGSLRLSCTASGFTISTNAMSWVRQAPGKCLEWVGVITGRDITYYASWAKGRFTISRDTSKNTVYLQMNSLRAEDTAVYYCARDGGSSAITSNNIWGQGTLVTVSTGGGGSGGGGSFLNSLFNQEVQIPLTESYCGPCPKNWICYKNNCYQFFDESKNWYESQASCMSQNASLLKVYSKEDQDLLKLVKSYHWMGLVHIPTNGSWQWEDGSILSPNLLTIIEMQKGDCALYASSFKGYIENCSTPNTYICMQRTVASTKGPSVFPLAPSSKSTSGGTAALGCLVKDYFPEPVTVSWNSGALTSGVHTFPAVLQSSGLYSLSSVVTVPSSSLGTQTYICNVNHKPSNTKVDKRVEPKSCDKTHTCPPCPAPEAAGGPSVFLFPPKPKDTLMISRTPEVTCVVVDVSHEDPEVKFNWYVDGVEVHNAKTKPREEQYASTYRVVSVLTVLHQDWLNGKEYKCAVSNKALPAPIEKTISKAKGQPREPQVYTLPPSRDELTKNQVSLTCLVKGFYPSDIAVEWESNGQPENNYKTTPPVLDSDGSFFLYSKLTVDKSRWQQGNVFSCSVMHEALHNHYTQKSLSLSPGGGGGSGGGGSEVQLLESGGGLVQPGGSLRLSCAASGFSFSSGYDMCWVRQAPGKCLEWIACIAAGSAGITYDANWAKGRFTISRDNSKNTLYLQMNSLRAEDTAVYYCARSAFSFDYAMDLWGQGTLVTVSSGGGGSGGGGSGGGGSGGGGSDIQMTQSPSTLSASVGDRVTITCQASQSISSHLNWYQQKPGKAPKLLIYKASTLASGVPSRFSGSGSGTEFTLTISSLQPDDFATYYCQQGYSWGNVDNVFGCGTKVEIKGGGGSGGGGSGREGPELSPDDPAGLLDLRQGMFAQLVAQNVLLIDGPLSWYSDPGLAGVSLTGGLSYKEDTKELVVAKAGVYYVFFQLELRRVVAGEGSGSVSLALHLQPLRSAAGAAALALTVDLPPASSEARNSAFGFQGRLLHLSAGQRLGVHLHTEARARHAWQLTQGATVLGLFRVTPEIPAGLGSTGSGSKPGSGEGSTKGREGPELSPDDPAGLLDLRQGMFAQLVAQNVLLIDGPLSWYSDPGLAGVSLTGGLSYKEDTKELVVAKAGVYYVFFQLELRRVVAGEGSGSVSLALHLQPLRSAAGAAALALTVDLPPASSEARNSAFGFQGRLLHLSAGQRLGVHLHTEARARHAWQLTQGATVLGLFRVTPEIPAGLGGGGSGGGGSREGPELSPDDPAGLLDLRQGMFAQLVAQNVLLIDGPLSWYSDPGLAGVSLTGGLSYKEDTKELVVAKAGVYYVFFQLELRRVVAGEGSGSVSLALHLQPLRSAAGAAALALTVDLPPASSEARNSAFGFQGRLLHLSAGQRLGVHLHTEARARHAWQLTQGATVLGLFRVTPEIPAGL
Sequence of human ROR1 (Q01973 30-403 limits assumed): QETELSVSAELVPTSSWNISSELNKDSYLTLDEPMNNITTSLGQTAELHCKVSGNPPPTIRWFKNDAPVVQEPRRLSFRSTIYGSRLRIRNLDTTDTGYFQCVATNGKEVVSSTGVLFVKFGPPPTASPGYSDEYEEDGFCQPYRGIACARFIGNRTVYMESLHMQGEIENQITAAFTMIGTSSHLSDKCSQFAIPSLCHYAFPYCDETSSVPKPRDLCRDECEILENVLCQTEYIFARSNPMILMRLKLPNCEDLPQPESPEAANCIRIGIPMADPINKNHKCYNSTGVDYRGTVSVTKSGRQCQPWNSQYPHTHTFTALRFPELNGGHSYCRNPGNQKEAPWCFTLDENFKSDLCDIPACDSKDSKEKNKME

Kd (human CD19 [1]) [nM] | Kd (human 4-1BB) [nM] | Kd (human PD-L1) [nM] | Binder | also measured
 |  |  | SI-55P3 (antibody, human IgG1, kappa, Penta-specific: D1 humanized anti-EGFR H1 scFv, D2 CD3, D3 PD-L1, D4 4-1BB, D6 CD19) heavy: not shown light: ENVLTQSPASLSASPGERVTITCSASSSVSYMHWYQQKPGQAPKLWIYDTSKLASGVPSRFSGSGSGNDHTLTISSMEPEDFATYYCFQGSVYPFTFGQGTKVTVLGGGGSGGGGSGGGGSGGGGSQVTLKESGPGLVQPGQTLRLTCAFSGFSLSTSGMGVGWIRQPPGKGLEWLAHIWWDDDKRYNPALKSRLTISKDTSKNQVYLQMNSLDAEDTAVYYCARMELWSYYFDYWGQGTLVTVSSGGGGSGGGGSDPVLTQSPSSLSASVGDRVTISCQSSQSVAKNNNLAWFQQKPGQAPKLLIYSASTLAAGVPSRFSGSGSGTDFTLTISSVQPEDFATYYCSARDSGNIQSFGGGTKVEIKRTVAAPSVFIFPPSDEQLKSGTASVVCLLNNFYPREAKVQWKVDNALQSGNSQESVTEQDSKDSTYSLSSTLTLSKADYEKHKVYACEVTHQGLSSPVTKSFNRGEC | Kd (human EGFR): 18.1 nM
 |  |  | SI-79P2 (antibody, human IgG1, kappa, Penta-specific: D1 humanized anti-EGFR H4 scFv, D2 CD3, D3 PD-L1, D4 4-1BB, D6 CD19) heavy: not shown light: ENVLTQSPASLSASPGERVTITCSASSSVSYMHWYQQKPGQAPKLWIYDTSKLASGVPSRFSGSGSGNDHTLTISSMEPEDFATYYCFQGSVYPFTFGQGTKVTVLGGGGSGGGGSGGGGSGGGGSQVTLKESGPGLVQPGQTLRLTCAFSGFSLSTSGMGVGWIRQPPGKGLEWLAHIWWDDDKRYNPALKSRLTISKDTSKNQVYLQMNSLDAEDTAVYYCARMELWSYYFDYWGQGTLVTVSSGGGGSGGGGSDPVLTQSPSSLSASVGDRVTISCQSSQSVAKNNNLAWFQQKPGQAPKLLIYSASTLAAGVPSRFSGSGSGTDFTLTISSVQPEDFATYYCSARDSGNIQSFGGGTKVEIKRTVAAPSVFIFPPSDEQLKSGTASVVCLLNNFYPREAKVQWKVDNALQSGNSQESVTEQDSKDSTYSLSSTLTLSKADYEKHKVYACEVTHQGLSSPVTKSFNRGEC | Kd (human EGFR): 4.3 nM
6.8 | 4.91 | 0.737 | SI-55H11 (antibody, human IgG1, kappa, also called hexa-GNC antibody SI-55H11) heavy: not shown light: ENVLTQSPASLSASPGERVTITCSASSSVSYMHWYQQKPGQAPKLWIYDTSKLASGVPSRFSGSGSGNDHTLTISSMEPEDFATYYCFQGSVYPFTFGQGTKVTVLGGGGSGGGGSGGGGSGGGGSQVTLKESGPGLVQPGQTLSLTCAFSGFSLSTSGMGVGWIRQPPGKGLEWLAHIWWDDDKRYNPALKSRLTISKDTSKNQVYLQMNSLDAEDTAVYYCARMELWSYYFDYWGQGTLVTVSSGGGGSGGGGSDVVMTQSPSTLSASVGDRVTINCQASESISSWLAWYQQKPGKAPKLLIYEASKLASGVPSRFSGSGSGTEFTLTISSLQPDDFATYYCQGYFYFISRTYVNSFGCGTKVEIKRTVAAPSVFIFPPSDEQLKSGTASVVCLLNNFYPREAKVQWKVDNALQSGNSQESVTEQDSKDSTYSLSSTLTLSKADYEKHKVYACEVTHQGLSSPVTKSFNRGECGGGGSGGGGSGGGGSQSALTQPASVSGSPGQSITISCTGTSSDVGGYNFVSWYQQHPGKAPKLMIYDVSDRPSGVSDRFSGSKSGNTASLIISGLQADDEADYYCSSYGSSSTHVIFGGGTKVTVLGGGGSGGGGSGGGGSGGGGSQVQLQESGGGLVKPGGSLSLSCAASGFTFSSYWMSWVRQAPGKGLEWVANINRDGSASYYVDSVKGRFTISRDDAKNSLYLQMNSLRAEDTAVYYCARDRGVGYFDLWGRGTLVTVSS | TDCC EC50 (pM), BxPC3 target cells (HER3 on BxPC3 cells): 0.0939 pM
 | 7.87 | 0.25 | SI-55H12 (antibody, human IgG1, kappa) heavy: not shown light: ENVLTQSPASLSASPGERVTITCSASSSVSYMHWYQQKPGQAPKLWIYDTSKLASGVPSRFSGSGSGNDHTLTISSMEPEDFATYYCFQGSVYPFTFGQGTKVTVLGGGGSGGGGSGGGGSGGGGSQVTLKESGPGLVQPGQTLSLTCAFSGFSLSTSGMGVGWIRQPPGKGLEWLAHIWWDDDKRYNPALKSRLTISKDTSKNQVYLQMNSLDAEDTAVYYCARMELWSYYFDYWGQGTLVTVSSGGGGSGGGGSDVVMTQSPSTLSASVGDRVTINCQASESISSWLAWYQQKPGKAPKLLIYEASKLASGVPSRFSGSGSGTEFTLTISSLQPDDFATYYCQGYFYFISRTYVNSFGGGTKVEIKRTVAAPSVFIFPPSDEQLKSGTASVVCLLNNFYPREAKVQWKVDNALQSGNSQESVTEQDSKDSTYSLSSTLTLSKADYEKHKVYACEVTHQGLSSPVTKSFNRGECGGGGSGGGGSGGGGSQSALTQPASVSGSPGQSITISCTGTSSDVGGYNFVSWYQQHPGKAPKLMIYDVSDRPSGVSDRFSGSKSGNTASLIISGLQADDEADYYCSSYGSSSTHVIFGGGTKVTVLGGGGSGGGGSGGGGSGGGGSQVQLQESGGGLVKPGGSLSLSCAASGFTFSSYWMSWVRQAPGKGLEWVANINRDGSASYYVDSVKGRFTISRDDAKNSLYLQMNSLRAEDTAVYYCARDRGVGYFDLWGRGTLVTVSS | binding result (human CD19 [2]): binds
 | 4.03 | 0.379 | SI-35E20 (antibody) chain 1: not shown chain 2: AYDMTQSPSSVSASVGDRVTIKCQASEDIYSFLAWYQQKPGKAPKLLIHSASSLASGVPSRFSGSGSGTDFTLTISSLQPEDFATYYCQQGYGKNNVDNAFGGGTKVEIKRTVAAPSVFIFPPSDEQLKSGTASVVCLLNNFYPREAKVQWKVDNALQSGNSQESVTEQDSKDSTYSLSSTLTLSKADYEKHKVYACEVTHQGLSSPVTKSFNRGEC | Kd (human ROR1): 0.861 nM
 |  |  | biotinylated human MICA (ligand, UniProt Q29983 24-308, looked up, biotinylated (site not stated), Loaded on SA tips as ligand for SI-49P6 and SI-49P7) EPHSLRYNLTVLSWDGSVQSGFLTEVHLDGQPFLRCDRQKCRAKPQGQWAEDVLGNKTWDRETRDLTGNGKDLRMTLAHIKDQKEGLHSLQEIRVCEIHEDNSTRSSQHFYYDGELFLSQNLETKEWTMPQSSRAQTLAMNVRNFLKEDAMKTKTHYHAMHADCLQELRRYLKSGVVLRRTVPPMVNVTRSEASEGNITVTCRASGFYPWNITLSWRQDGVSLSHDTQQWGDVLPDGNGTYQTWVATRICQGEEQRFTCYMEHSGNHSTHPVPSGKVLVLQSHWQ | Kd (SI-49P7): 10.7 nM
1.11 | 4.85 | 0.195 | SI-38P12 (antibody, human IgG1, kappa) heavy: not shown light: ENVLTQSPASLSASPGERVTITCSASSSVSYMHWYQQKPGQAPKLWIYDTSKLASGVPSRFSGSGSGNDHTLTISSMEPEDFATYYCFQGSVYPFTFGQGTKVTVLGGGGSGGGGSGGGGSGGGGSQVTLKESGPGLVQPGQTLRLTCAFSGFSLSTSGMGVGWIRQPPGKGLEWLAHIWWDDDKRYNPALKSRLTISKDTSKNQVYLQMNSLDAEDTAVYYCARMELWSYYFDYWGQGTLVTVSSGGGGSGGGGSDVVMTQSPSTLSASVGDRVTINCQASESISSWLAWYQQKPGKAPKLLIYEASKLASGVPSRFSGSGSGTEFTLTISSLQPDDFATYYCQGYFYFISRTYVNSFGGGTKVEIKRTVAAPSVFIFPPSDEQLKSGTASVVCLLNNFYPREAKVQWKVDNALQSGNSQESVTEQDSKDSTYSLSSTLTLSKADYEKHKVYACEVTHQGLSSPVTKSFNRGEC | 
0.181 | 8.54 | 0.731 | SI-38P13 (antibody, human IgG1, kappa) heavy: not shown light: DPVLTQSPSSLSASVGDRVTISCQSSQSVAKNNNLAWFQQKPGQAPKLLIYSASTLAAGVPSRFSGSGSGTDFTLTISSVQPEDFATYYCSARDSGNIQSFGGGTKVEIKRTVAAPSVFIFPPSDEQLKSGTASVVCLLNNFYPREAKVQWKVDNALQSGNSQESVTEQDSKDSTYSLSSTLTLSKADYEKHKVYACEVTHQGLSSPVTKSFNRGECGGGGSGGGGSGGGGSQVTLKESGPGLVQPGQTLRLTCAFSGFSLSTSGMGVGWIRQPPGKGLEWLAHIWWDDDKRYNPALKSRLTISKDTSKNQVYLQMNSLDAEDTAVYYCARMELWSYYFDYWGQGTLVTVSSGGGGSGGGGSGGGGSGGGGSENVLTQSPASLSASPGERVTITCSASSSVSYMHWYQQKPGQAPKLWIYDTSKLASGVPSRFSGSGSGNDHTLTISSMEPEDFATYYCFQGSVYPFTFGQGTKVTVL | 
 | 18.1 | 0.421 | SI-39E18 (antibody) chain 1: not shown chain 2: DILMTQSPSSMSVSLGDTVSITCHSSQDINSNIGWLQQRPGKSFKGLIYHGTNLDDEVPSRFSGSGSGADYSLTISSLESEDFADYYCVQYAQFPWTFGGGTKLEIKRTVAAPSVFIFPPSDEQLKSGTASVVCLLNNFYPREAKVQWKVDNALQSGNSQESVTEQDSKDSTYSLSSTLTLSKADYEKHKVYACEVTHQGLSSPVTKSFNRGEC | Kd (EGFRvIII): 16.4 nM
1.48 | 8.19 | 0.524 | SI-38E17 (antibody, V domains shown) VH: EVQLVESGGGLVQPGGSLRLSCAASGFTISTNAMSWVRQAPGKGLEWIGVITGRDITYYASWAKGRFTISRDNSKNTLYLQMNSLRAEDTAVYYCARDGGSSAITSNNIWGQGTLVTVSS VL: AIQLTQSPSSLSASVGDRVTITCRASQGISSALAWYQQKPGKAPKLLIYDASSLESGVPSRFSGSGSGTDFTLTISSLQPEDFATYYCQQFNSYPFTFGPGTKVDIK | 
